We go through one molecule from doi:10.1101/2025.03.24.644901, “Substrate recognition by human separase” (bioRxiv, 2025).

The target in the assay is T1, inactive apo-separase (separase^C2029S) (human, UniProt Q14674 1-2120, C2029S).
T1 construct: human separase, aa 1-2120, catalytic cysteine replaced with serine; AIL1 and the autocleavage sites are intact in this construct; also called apo-separase^C2029S; source: Sf9 (baculovirus), purified (StrepTactin, heparin, Superose 6)
Kind of assay: fluorescence polarisation; FlAsH-labelled MBP-SCC1 fragment as probe, inactive separase added; 25 mM HEPES pH 8.0, 100 mM NaCl, 0.1 mg/ml BSA, 0.01% NP40; 25°C; One Site-Total non-linear fit; three repeats. To be noted: both partners purified. (In general: In fluorescence polarisation assays a small probe gives low polarisation when free and higher when bound to something large.)

T1 sequence (Q14674 whole entry C2029S, the tested form may be a part): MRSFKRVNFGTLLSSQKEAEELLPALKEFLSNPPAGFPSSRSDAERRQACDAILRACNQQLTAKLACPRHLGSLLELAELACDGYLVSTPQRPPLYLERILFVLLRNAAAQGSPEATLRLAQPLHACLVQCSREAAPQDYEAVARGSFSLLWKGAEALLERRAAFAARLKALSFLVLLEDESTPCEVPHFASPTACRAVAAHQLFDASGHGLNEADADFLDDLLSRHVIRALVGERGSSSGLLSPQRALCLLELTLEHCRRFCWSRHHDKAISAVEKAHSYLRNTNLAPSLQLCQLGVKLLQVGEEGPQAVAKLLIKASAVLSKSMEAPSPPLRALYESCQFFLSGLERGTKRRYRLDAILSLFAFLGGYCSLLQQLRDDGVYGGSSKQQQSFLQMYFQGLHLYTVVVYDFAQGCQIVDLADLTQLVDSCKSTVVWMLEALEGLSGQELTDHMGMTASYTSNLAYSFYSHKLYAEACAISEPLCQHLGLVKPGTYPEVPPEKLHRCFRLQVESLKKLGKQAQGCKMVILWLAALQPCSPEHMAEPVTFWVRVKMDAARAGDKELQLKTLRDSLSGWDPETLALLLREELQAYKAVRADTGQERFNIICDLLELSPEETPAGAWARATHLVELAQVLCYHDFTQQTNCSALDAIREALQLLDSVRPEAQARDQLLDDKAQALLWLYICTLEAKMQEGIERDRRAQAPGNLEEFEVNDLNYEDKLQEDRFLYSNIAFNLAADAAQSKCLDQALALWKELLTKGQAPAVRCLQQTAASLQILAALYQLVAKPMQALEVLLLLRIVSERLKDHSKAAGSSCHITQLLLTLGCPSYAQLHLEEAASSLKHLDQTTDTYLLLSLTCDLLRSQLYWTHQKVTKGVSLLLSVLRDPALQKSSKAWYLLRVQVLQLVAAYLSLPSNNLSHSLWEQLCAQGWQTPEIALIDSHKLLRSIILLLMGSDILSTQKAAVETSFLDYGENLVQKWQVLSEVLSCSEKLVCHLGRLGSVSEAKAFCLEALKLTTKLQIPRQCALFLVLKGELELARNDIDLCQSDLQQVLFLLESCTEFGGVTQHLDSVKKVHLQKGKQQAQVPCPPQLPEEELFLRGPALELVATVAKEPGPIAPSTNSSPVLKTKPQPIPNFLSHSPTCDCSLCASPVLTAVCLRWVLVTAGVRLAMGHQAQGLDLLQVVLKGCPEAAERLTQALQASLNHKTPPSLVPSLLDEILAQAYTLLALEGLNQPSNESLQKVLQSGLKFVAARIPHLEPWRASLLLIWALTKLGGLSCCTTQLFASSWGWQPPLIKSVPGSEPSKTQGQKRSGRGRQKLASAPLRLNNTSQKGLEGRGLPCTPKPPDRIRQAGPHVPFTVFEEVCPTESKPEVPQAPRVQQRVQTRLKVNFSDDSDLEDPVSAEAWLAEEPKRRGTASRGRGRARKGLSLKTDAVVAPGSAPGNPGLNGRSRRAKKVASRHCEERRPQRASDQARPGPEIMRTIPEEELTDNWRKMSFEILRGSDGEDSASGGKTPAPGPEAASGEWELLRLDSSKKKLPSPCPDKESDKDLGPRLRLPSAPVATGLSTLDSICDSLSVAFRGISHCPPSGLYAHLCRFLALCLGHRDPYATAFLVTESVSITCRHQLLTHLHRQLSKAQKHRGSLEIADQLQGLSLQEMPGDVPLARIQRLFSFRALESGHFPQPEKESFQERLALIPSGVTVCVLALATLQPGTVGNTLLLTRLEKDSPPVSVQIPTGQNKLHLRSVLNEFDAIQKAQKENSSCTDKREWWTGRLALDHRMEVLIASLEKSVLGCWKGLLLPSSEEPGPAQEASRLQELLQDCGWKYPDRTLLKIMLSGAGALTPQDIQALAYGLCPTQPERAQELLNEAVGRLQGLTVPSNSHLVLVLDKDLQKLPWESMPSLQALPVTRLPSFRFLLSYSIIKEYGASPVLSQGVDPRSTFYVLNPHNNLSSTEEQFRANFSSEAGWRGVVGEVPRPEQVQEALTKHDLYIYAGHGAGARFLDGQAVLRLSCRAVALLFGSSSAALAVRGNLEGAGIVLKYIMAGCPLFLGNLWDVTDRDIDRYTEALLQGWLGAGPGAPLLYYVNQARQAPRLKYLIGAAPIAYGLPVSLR

B1: MBP-SCC1 (aa 350-550) with C-terminal tetracysteine motif, FlAsH-labelled (domain or fragment, human, UniProt O60216 350-550, looked up)
chain: TLDLAPPTKKLMMWKETGGVEKLFSLPAQPLWNNRLLKLFTRCLTPLVPEDLRKRRKGGEADNLDEFLKEFENPEVPREDQQQQHQQRDVIDEPIIEEPSRLQESVMEASRTNIDESAMPPPPPQGVKRKAGQIDPEPVMPPQQVEQMEIPPVELPPEEPPNICQLIPELELLPEKEKEKEKEKEDDEEEEDEDASGGDQD
modifications: FlAsH-EDT2 fluorescent dye on the C-terminal tetracysteine motif
notes: human SCC1/RAD21, aa 350-550 (holds cleavage site 2, R427); also called SCC1^350–550; SCC1 site 2 (aa 350-550); source: E. coli BL21 (DE3), purified (Hitrap MBP, Superdex 200); not shown: 6xHis-MBP, N-terminal, kept
Regarding B1, the binding result is given as “binds”.
